Test in all cases: cleavage_in_vitro
The target in data set [1] is T1, BamHI-HF E163A/E167T (Bacillus amyloliquefaciens) (UniProt P23940).
T1 sequence: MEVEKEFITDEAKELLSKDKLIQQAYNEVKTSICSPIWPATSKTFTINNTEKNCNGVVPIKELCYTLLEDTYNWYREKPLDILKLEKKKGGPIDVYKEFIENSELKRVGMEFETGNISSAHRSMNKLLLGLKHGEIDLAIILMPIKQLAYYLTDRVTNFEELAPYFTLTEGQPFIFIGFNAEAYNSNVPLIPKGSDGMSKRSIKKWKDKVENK
To be noted: NEB4, 37 C, Mg2+.

Data set [2] has as its system T2, SphI-HF K100A (Streptomyces phaeochromogenes).
T2 sequence: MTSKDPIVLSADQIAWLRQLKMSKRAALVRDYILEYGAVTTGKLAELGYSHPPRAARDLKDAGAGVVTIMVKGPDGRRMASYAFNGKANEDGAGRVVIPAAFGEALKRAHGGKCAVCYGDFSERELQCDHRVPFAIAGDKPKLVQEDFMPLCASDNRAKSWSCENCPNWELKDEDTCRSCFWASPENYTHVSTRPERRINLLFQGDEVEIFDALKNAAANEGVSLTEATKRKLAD
Conditions: NEB4, 37 C, Mg2+.

For data set [3], the system named is T3, BsmBI (Bacillus stearothermophilus).
T3 sequence: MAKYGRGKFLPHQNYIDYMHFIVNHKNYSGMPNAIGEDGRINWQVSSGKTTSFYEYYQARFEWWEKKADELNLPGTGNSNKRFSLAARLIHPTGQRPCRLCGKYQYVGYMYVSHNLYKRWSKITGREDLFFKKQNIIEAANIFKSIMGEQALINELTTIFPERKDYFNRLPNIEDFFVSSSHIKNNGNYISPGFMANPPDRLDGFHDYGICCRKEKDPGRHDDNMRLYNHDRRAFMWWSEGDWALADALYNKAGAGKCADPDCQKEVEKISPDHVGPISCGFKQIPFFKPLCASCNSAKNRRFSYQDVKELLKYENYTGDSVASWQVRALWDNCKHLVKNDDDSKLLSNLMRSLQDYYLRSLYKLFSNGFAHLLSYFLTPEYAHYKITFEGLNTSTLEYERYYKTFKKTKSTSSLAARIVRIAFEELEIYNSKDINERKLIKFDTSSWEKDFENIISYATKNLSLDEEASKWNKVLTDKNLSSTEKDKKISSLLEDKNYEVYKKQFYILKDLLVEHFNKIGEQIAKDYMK
To be noted: NEB4, 55 C, Mg2+.

The subject of data set [4] is T4, SapI (Saccharopolyspora sp.).
T4 sequence: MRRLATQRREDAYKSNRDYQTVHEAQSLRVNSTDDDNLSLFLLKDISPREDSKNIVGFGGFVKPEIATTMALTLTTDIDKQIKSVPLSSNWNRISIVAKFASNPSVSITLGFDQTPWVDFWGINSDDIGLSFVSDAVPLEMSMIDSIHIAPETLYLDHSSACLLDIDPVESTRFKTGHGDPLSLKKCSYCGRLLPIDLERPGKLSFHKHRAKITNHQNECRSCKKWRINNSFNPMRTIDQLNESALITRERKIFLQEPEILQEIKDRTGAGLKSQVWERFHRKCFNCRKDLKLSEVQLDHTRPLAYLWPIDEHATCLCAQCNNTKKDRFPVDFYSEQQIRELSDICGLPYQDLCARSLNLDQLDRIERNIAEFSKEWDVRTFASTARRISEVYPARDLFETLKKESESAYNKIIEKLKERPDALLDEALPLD
Conditions: NEB4, 37 C, Mg2+.

Data set [5] deals with T5, HindIII (Haemophilus influenzae Rd) (UniProt P43870).
T5 sequence: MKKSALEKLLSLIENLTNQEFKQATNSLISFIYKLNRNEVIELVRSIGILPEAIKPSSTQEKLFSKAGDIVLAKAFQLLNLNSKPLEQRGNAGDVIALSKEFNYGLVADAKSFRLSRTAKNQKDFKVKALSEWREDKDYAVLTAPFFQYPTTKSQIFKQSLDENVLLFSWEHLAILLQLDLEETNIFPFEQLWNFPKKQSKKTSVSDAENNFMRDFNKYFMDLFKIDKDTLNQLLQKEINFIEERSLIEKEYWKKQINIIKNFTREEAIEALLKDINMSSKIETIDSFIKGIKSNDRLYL
Conditions: NEB4, 37 C, Mg2+.

Data set [6] has as its target T6, ScaI-HF H193A/S201F (Streptomyces caespitosus) (UniProt O52691).
T6 sequence: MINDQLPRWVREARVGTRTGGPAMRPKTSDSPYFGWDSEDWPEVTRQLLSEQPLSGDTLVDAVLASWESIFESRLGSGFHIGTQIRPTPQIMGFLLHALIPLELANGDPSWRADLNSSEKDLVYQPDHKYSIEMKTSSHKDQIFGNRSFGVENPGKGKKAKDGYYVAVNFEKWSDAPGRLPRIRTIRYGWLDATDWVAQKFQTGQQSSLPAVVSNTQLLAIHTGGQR
Conditions: NEB4, 37 C, Mg2+.

Data set [7] addresses T7, BamHI (Bacillus amyloliquefaciens) (UniProt P23940).
T7 sequence: T1 sequence with A163E, T167E
Conditions: NEB4, 37 C, Mg2+.

Data set [8] deals with T8, SspI (Sphaerotilus species).
T8 sequence: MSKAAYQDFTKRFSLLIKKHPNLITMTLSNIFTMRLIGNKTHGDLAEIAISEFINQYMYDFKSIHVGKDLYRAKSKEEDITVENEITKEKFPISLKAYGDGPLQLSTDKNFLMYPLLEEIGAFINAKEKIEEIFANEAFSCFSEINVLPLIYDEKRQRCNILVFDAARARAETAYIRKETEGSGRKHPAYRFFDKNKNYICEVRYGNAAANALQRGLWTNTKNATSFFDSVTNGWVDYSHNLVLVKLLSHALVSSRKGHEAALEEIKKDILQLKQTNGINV
To be noted: NEB4, 37 C, Mg2+.

Changes are numbered by the printed parent chain. A value given as a limit tells only on which side of the number the result lay.

Activity (fidelity index) data for one substance are collected here from patent publication US20130115677.

On to lambda DNA, for which the activity (fidelity index) in data set [1] was over 4000; in data set [2], 8000; in data set [3] it was 4; in data set [4], 16; in data set [5], 32; in data set [6], 1000. Further, the activity (fidelity index) in data set [7] is 4; in data set [8] it was 16.
